Experimental data published in patent publication US20060078550.

Target: human prothrombin, P00734

B1: recombinant His-tagged porcine fgl2 protein generated by pfgl2bv infection of insect cells (protein)
chain: MKLKLSNWCWLSSAVLAAYGFLVVANNETEEIKDEAAKDACPVRLESRGKCEEVGGCPYQVNLPPLTLQLPKQFGRIEEVFKEVQNLKEIVNSLKKTCQDCRLQADDNRDPGRNGLLSPGTGAPGEADDSRVRELENEVNKLSSDLKNAKEEIDGLQGRLEKLSLVNMNNIENYVDNKVANLTFAVNSLDGKCSSRCPSQEQIQSRPVQHLIYKDCSEYYTIGKRSSEIYRVTPDPKNSSFEVYCDMETMGGGWTVLQARLDGSTNFTRTWRDYKVGFGNLRREFWLGNDKIHLLTKSKDMILRIDLEDFNGIKLYALYDHFYVANEFLKYRLHIGNYNGTAGDALRFSKHYNHDMKYFTTPDRDNDRYPSGNCGLYYSSGWWFDACLSANLNGKYYNQKYRGVRNGIFWGTWPGISEAQPGGYRSSFKEAKMMIRPKYFKP
thrombin activity (chromogenic substrate Chromozym TH, change in OD 405 nm over time): A significant level of thrombin activity was generated by pfgl2bv-infected cell lysates in contrast to wild-type baculovirus-infected and uninfected controls
